Consider two molecules from article PMC6224492 (2018).

The star is where a group is joined. FITC = O=C1OC2(c3ccc(O)cc3Oc3cc(O)ccc32)c2ccc(NC(=S)*)cc21; Ahx = NCCCCCC(=O)O

In assay [1] the target is full-length PPARγ (isoform 2), delipidated, no ligand (human) (UniProt P37231). Briefly: FP.
Assay [2] addresses T1, full-length PPARγ with GW1929 (Homo sapiens).
T1 chain: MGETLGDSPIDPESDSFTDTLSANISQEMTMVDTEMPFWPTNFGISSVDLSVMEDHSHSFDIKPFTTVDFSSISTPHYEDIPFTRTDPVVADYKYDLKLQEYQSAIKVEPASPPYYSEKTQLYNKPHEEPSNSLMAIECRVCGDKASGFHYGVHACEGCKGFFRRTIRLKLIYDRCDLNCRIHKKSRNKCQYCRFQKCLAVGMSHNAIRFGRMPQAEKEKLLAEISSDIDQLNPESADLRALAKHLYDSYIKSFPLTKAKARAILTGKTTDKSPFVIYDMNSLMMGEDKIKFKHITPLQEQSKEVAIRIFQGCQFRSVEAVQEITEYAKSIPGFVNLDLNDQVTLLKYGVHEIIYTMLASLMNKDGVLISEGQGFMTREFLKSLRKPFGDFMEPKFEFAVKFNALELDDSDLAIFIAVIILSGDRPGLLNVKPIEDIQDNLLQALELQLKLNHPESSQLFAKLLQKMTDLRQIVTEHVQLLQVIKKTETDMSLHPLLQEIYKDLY
Briefly: FP; GW1929.

Turning to “FITC-labeled NCoR1 corepressor peptide (residues 2256-2278)”, the Kd in assay [1] is 7.4 µM.

Molecule {FITC-Ahx}-DPASNLGLEDIIRKALMGSFDDK-NH2 [FITC-labeled NCoR1 corepressor peptide (residues 2256-2278)] registered a Kd in assay [2] of 9 µM.
